What was measured:
Rabbit muscle actin = target: T1, Rabbit muscle actin (Oryctolagus cuniculus, UniProt P68135); assay: Peptide array screen for actin binding; conditions: peptides on cellulose membrane; 5 μM actin; densitometry relative to K108-K133
T1 construct: Rabbit muscle actin (A2522, Sigma-Aldrich, St Louis, Mo.); purchased Sigma-Aldrich, St Louis, Mo; A2522; host or cells: rabbit muscle (tissue-derived)
Description: The peptides were acetylated at their N-termini and attached to a cellulose membrane via their C-termini through an amide bond. Peptide array (INTAVIS Bioanalytical Instruments AG, Koeln, Germany).
The array was immersed in 5 ml blocking solution (TBST containing 2.5% milk) for 4 hours with shaking, then washed once with blocking solution (30 sec.) and twice with TBST (5 min. each). 5 μM actin were dissolved in the blocking solution (˜1:3), and incubated with the array at 4° C. with shaking overnight. After washing with TBST (1×30 sec. and 2×5 min.) the array was incubated first with rabbit anti actin antibody diluted 1:100 in blocking solution for 4 hours at room temperature followed by washings three times with TBST (1×30 sec. and 2×5 min.). The array was then incubated with horseradish peroxidase-conjugated goat anti rabbit IgG antibody diluted 1:10,000 in blocking solution at room temperature for 2 hours followed by washing with TBST (1×30 sec. and 2×5 min.). Immunodetection was performed using chemiluminiscence with ECL reagents.
The modifications included an alanine scan, truncations and systematic replacements of each residue in each peptide by the corresponding D-amino acid residue and N-methylated residue, C terminal truncations and N terminal truncations. The array was screened for binding the actin protein.

[1] = test system: chick Chorio-Allantoic Membrane (CAM); assay: Ex ovo CAM angiogenesis assay; format: in vivo, chicken; conditions: 3 μg on paper disk daily for four days from day 8; compared to PBS control
Description: In this assay, in-vivo angiogenesis is assessed on live chick embryos grown in petri dishes. Fertilized eggs are cracked into a petri dish after a few (e.g. 3) days incubation at appropriate temperature (e.g. 37° C.) and humidity. In the following days, the embryos developed a vascular network, which can then easily be exposed to any treatment or combination of treatments, for example, via delivery onto absorbent disks placed on/about the developing vascular regions. Angiogenesis is scored by periodically (e.g. 1×/day, 2×/day, 1×/2 days, 1×/4 days, etc) counting the number of blood vessels around the disk.
Fertilized chicken eggs were incubated horizontally at 37° C. and humidity of 60-62% and cracked into Petri dishes at embryonic day 4. Incubation was continued under the same conditions. […] Treatment was given every day for four days, then, the number of blood vessels around the treated disks was counted.

actin = actin (Oryctolagus cuniculus, UniProt P68135); assay: Surface plasmon resonance (BIAcore) of actin binding; conditions: actin on CM5 chip, 25° C.
Description: SPR was performed on a BIAcore 3000 instrument (BIAcore, Uppsala, Sweden). Actin was diluted in 100 mM CH3COONa pH 4.6 to a final concentration of 20 μg/ml (200 μl total) resulting in ˜1 ng immobilized actin on a CM5 BIAcore sensor chip (GE Healthcare Bio-Sciences AB) using the standard BIAcore amine coupling chemistry protocol. The CM5 chip allows four separate flow cells to be operated in the BIAcore 3000 instrument used in these experiments. Coupling is achieved by activating the surface of the sensor chips with equal volumes of 50 mM N-hydroxysuccimide (NHS)/200 mM Nethyl-N-(3-[…])-carboiimide (EDC) (BIAcore, AB, Uppsala, Sweden) to form activated carboxyl groups. An actin solution […] was run over the chip for 5 min at a rate of 10 μl/min, allowing the amine groups on the protein to react with the activated esters. In the final stage of immobilization, the surface was blocked by 1M ethanol amine, pH 8.0. The binding assay was performed by injecting the hRNASET2, trT2-49, trT2-49m or peptides solutions in running buffer (HBS—10 mM Hepes, 150 mM Sodium Chloride, 3 mM EDTA, 0.005% Polysorbate 20) at 5 different concentrations at a flow rate of 10 μl/min at 25° C. Injections were performed simultaneously over all four channels and blank surface (a plain dextran matrix, channel 1) was used as control. The net signal was obtained by subtracting the blank signal from the signal of the immobilized surface. The association phase for protein or peptides binding to actin was followed for 4 min, and dissociation phases were monitored for 3 min. Surface regeneration between consecutive binding cycles included a 1 min injection of 1 mM NaOH. The response was monitored as a function of time (sensorgram) at 25° C. Multi-concentration data were globally fit using BIA evaluation 3.2 software.
The strength of a two molecule interaction is characterized by the equilibrium dissociation (binding) constant KD=[P][L]/[PL], where [P] is the concentration of free protein (or peptide), [L] the concentration of ligand and [PL] the concentration of the complex. […]

[2] = target: T2, G-Actin from rabbit muscle (Oryctolagus cuniculus, UniProt P68135); assay: ELISA actin binding assay (solid-phase, immobilized actin); conditions: immobilized G-actin 500 ng/well
T2 construct: G-Actin from rabbit muscle; purchased Sigma-Aldrich, St Louis, Mo; host or cells: rabbit muscle (tissue-derived)
Description: Peptides corresponding to a variety of amino acid sequences in the region of human RNASET2 comprising helix 5 and helix 6 were synthesized and assayed for actin binding in an ELISA actin binding assay.
Solid-phase ELISA for RNASET2 peptide binding to immobilized actin was performed as modified from Mejean 1987 (Biochem. J. 244: 571-577) and Mejean 1992 (Eur. J Biochem. 209: 555-562). All steps were conducted at 37° C. Immuno-96 Microwell™ solid plates (Thermo Fisher Scientific, MA) coated with 500 ng/well of G-Actin from rabbit muscle (Sigma-Aldrich, St Louis, Mo.) in 100 ul of 0.05 M carbonate buffer, pH 9.5 (Sigma-Aldrich, Mo), incubated for 1 h and washed with 250 ul/well Tris Buffered Saline (TBS) (Sigma-Aldrich). The wells were blocked with 3% bovine serum albumin (BSA, Sigma-Aldrich) in 200 ul/well TBS for another 1 hour and washed with 250 ul/well TBS. The candidate peptides are then added at various concentrations (for example, serial dilutions giving 500, 250 or 125 ng/well) in 100 ul/well Tris Buffered Saline (TBS), incubated for 1 hour and washed 3 times with 250 ul/well TBS containing 0.05% Tween®20 (TBST, Sigma-Aldrich). Anti-T2 RNase (rabbit anti-rhtrRNASET2, Anilab, Israel, whole serum or antiserum) was then added, incubated for 1 hour and the plates washed 3 times with 250 ul/well TBST. Labeled second antibody [peroxidase-conjugated affinity pure goat-anti rabbit IgG (Jackson, Pa.)] was added at a dilution of 1:10:000 in 100 ul/well TBS, incubated for 1 hour and the plates washed twice with 250 ul/well TBST. After an additional wash with 250 ul/well TBS, 1-Step Ultra TMB-ELISA (TMB-3,3′,5,5′ Tetramethylbenzidine) (Thermo-Scientific) was added (100 ul/well) and after 15-25 min of incubation, the reaction was read at A650 using Infinite F50-TECAN ELISA READER (TECAN, Austria). Each assay was performed in triplicates.

HUVEC = HUVEC tube formation assay on Matrigel; format: cell-based, human; conditions: angiogenin or VEGF induced; 2 μM peptide
Description: FIGS. 6A-6D illustrate in-vitro inhibition of angiogenesis in the HUVEC model by T2 peptides. HUVEC cells plated on Matrigel™ were exposed to 2 μM of T2 peptides A103-Q159 (SEQ ID NO: 60), K108-K133 (SEQ ID NO: 57) or K108-L123 (SEQ ID NO: 67), in addition to 1 μg/ml of angiogenin or VEGF as the angiogenic agent, as indicated. Control wells received PBS. FIG. 6B-Results were assessed by imaging software, and quantified, and expressed relative to tube formation with angiogenin or VEGF alone (100%) Column 1=angiogenin, column 2=angiogenin+SEQ ID NO: 60, column 3=angiogenin+SEQ ID NO: 57, column 4=angiogenin+[…], Column 5=VEGF, column 6=VEGF+SEQ ID NO: 60, column 7=VEGF+SEQ ID NO: 57, column 8=VEGF+[…]. FIGS. 6C and 6D illustrate the inhibitory effect of truncated human T2 polypeptide trT2-49m (SEQ ID NO: 129) on angiogenin and VEGF induced HUVEC tube formation. Note the significant inhibition of HUVEC tube formation by all of the T2 peptides assayed, and in particular, K108-K133 (SEQ ID NO: 57);
HUVEC (CC-2519)(fresh or commercially provided) are maintained in M199 rrrediurn supplemented with 20% FCS, 1% glutamine, 1% antibiotic-antimycotic solution, ECGF, and heparin, plated in a 96-well plate (14×10^3 cells/well) previously coated with growth factor-depleted Matrigel™ (BD Biosciences), in M199 medium containing 5% FCS and 0.005% ECGF. The wells are supplemented with candidate T2 RNase peptides or PBS, and angiogenic growth factors (1 μg/ml angiogenin, bFGF or VEGF) to a final volume of 120 pl. Plates are incubated (overnight), photographed and the extent of tube formation (angiogenesis) assessed.

Substance: KKYFGRSLEL [SEQ ID NO: 131]
- actin binding of immobilized peptides (Rabbit muscle actin): significant actin binding

Substance: KKYFGRSLELYR [SEQ ID NO: 62]
- actin binding of immobilized peptides (Rabbit muscle actin): significant actin binding

Substance: LYREL [SEQ ID NO: 132]
- actin binding of immobilized peptides (Rabbit muscle actin): significant actin binding

Substance: SEQ ID NO: 1: mature full length human RNASET2, T2 family ribonuclease
- inhibition of angiogenesis (number of blood vessels around disk) [1]: effective in inhibiting angiogenesis
- Ka × 10^3 (actin): 1.44 ×10^3 1/Ms

Substance: SEQ ID NO: 63: peptide representing amino acids 103-141 of RNASET2 (ALNSQKKYFGRSLELYRELDLNSVLLKLGIKPSINYYQV)
- actin binding on ELISA [2]: moderate

Substance: SEQ ID NO: 67: peptide K108-L123 of human RNASET2, 16 aa
- inhibition of HUVEC tube formation (HUVEC): unable to inhibit tube formation

Reference: patent publication US20160340659A1, “ACTIN BINDING PEPTIDES AND COMPOSITIONS COMPRISING SAME FOR INHIBITING ANGIOGENESIS AND TREATING MEDICAL CONDITIONS ASSOCIATED WITH SAME” (YISSUM RESEARCH AND DEVELOPMENT COMPANY OF THE HEBREW …, priority 2014, published 2016)
